The source of these data is paper PMC4784688 (Developmental cell, 2015).

Test [1] has as its target T1, soluble purified PTPδ ectodomain fused to the Fc region of human immunoglobulin (UniProt Q64487 21-1266).
T1 sequence (looked up): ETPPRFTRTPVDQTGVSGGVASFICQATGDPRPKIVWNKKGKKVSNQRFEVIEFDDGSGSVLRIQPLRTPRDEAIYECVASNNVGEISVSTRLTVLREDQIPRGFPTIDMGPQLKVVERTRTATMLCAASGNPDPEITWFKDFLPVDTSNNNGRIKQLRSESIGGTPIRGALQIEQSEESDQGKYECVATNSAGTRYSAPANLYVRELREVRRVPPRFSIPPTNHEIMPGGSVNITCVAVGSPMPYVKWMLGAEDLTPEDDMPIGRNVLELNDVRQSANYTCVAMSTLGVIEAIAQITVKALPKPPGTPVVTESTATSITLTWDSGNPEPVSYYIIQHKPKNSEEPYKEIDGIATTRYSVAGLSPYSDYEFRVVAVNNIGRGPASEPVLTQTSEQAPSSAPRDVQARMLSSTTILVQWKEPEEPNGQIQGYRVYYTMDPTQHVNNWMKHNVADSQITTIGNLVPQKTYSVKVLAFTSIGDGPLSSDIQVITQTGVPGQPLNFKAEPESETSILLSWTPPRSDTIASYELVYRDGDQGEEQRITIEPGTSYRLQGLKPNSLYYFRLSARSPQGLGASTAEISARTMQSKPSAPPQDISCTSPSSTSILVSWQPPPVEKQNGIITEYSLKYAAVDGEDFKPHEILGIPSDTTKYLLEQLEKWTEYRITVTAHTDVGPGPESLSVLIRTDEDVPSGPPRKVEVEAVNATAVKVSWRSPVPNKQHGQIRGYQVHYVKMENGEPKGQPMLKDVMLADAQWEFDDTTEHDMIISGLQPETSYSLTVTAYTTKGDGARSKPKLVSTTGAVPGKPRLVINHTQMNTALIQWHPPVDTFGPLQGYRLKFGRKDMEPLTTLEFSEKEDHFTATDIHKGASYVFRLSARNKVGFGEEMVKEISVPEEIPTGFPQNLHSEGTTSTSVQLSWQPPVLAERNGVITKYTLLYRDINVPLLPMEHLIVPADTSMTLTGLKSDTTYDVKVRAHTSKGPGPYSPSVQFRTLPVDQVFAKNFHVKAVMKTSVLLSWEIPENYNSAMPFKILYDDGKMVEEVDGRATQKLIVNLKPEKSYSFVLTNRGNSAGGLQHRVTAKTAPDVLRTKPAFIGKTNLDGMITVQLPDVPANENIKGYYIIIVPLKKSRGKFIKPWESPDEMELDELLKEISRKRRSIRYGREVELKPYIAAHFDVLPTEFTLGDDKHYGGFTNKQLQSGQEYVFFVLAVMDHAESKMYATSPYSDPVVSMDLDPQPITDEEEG
Nature of the test: immunostaining of cells or tissue.

Test [2] has as its target T2, Slitrk5 (UniProt O94991).
T2 chain: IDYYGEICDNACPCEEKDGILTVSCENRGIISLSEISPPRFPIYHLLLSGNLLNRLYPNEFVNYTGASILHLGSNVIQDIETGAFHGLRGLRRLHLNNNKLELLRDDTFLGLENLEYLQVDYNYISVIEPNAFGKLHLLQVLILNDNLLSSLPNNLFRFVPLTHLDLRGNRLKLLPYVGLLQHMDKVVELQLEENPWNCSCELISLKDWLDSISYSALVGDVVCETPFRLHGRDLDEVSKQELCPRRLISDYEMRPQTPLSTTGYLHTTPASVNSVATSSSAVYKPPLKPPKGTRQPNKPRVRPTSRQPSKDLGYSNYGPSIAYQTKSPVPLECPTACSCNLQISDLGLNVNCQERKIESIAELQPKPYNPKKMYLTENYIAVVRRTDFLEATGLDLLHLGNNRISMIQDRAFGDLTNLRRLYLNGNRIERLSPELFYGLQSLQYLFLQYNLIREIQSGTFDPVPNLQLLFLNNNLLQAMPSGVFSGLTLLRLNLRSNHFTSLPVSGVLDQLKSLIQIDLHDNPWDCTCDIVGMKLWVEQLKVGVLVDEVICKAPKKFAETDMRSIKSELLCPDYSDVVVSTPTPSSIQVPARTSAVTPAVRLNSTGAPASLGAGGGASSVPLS
Put plainly: PTPδ-Fc dissociation from cells.

B1: HA-tagged Slitrk5 (WT, full-length) (natural protein, UniProt Q810B7 41-957, looked up)
chain: IDYYGEICDNACPCEEKDGILTVSCENRGIISLSEISPPRFPIYHLLLSGNLLSRLYPNEFVNYTGASILHLGSNVIQDIETGAFHGLRGLRRLHLNNNKLELLRDDTFLGLENLEYLQVDYNYISVIEPNAFGKLHMLQVLILNDNLLSGLPNNLFRFVPLTHLDLRGNRLKLLPYVGLLQHMDKVVELQLEENPWNCSCELISLKDWLDSISYSALVGDVVCETPFRLHGRDLDEVSKQELCPRKLISDYEMRPQTPLSTTGYLHTTPASVNSVATSSSAVYKPPLKPPKGTRQPNKPRVRPTSRQPSKDLGYSNYGPSIAYQTKSPVPLECPTACTCNLQISDLGLNVNCQERKIESIAELQPKPYNPKKMYLTENYITVVRRTDFLEATGLDLLHLGNNRISMIQDRAFGDLGNLRRLYLNGNRIERLSPELFYGLQSLQYLFLQYNLIREIQAGTFDPVPNLQLLFLNNNQLQAMPSGVFSGLTLLRLNLRGNSFTSLPVSGVLDQLTSLIQIDLHDNPWDCTCDVVGMKLWIEQLKVGVLVDEVICKAPKKFAETYMRSIKSELLCPDYSDVVVSTPTPSSIQVPSRTNAATPAVRLNSTGTPAGLGAGTGASSVPLSVLILSLLLVFIMSVFVAAGLFVLVMKRRKKNQSDHTSTNNSDVSSFNMQYSVYGGGGGGGGGHPHAHVHHRGPALPKVKTPAGHVYEYIPHPLGHMCKNPIYRSREGNSVEDYKDLHELKVTYSSNHHLQQQPPPPPQQPQQQPPPQMQMQPGEEERRESHHLRSPAYSVSTIEPREDLLSPVQDADRFYRGILEPDKHCSTTPAGSSLPEYPKFPCSPAAYTFSPNYDLRRPHQYLHPGAGESRLREPVLYSPPGAVFVEPNRNEYLELKAKLNVEPDYLEVLEKQTTFSQF
One may read the Kd as the constant that tells how readily two partners part at equilibrium. Lower therefore signals tighter binding. For B1, the dissociation constant Kd in test [1] was roughly 100 nM.

B2: BDNF (protein)
chain: HSDPARRGELSVCDSISEWVTAADKKTAVDMSGGTVTVLEKVPVSKGQLKQYFYETKCNPMGYTKEGCRGIDKRHWNSQCRTTQSYVRALTMDSKKRIGWRFIRIDTSCVCTLTIKRGR
For the molecule B2, in test [2], the dissociation constant (Kd) is roughly 0.9 nM.
